Measured values reported in patent US20150125477A1 (IMMATICS BIOTECHNOLOGIES, published 2015).

Biological target: T1, A*0201 (biotinylated pMHC monomer from UV-induced MHC ligand exchange) (human, biotin)
T1 construct: pMHC complexes for aAPC loading and multimer read-out
Assay: pMHC complex from UV-induced MHC ligand exchange, used as control
Method: Generation of pMHC/anti-CD28 coated beads, T-cell stimulations and readout was performed in a highly defined in vitro system using four different pMHC molecules per stimulation condition and 8 different pMHC molecules per readout condition. […] In order to determine the amount of pMHC monomer obtained by exchange we performed streptavidin-based sandwich ELISAs according to (Rodenko et al., 2006). The purified co-stimulatory mouse IgG2a anti human CD28 Ab 9.3 (Jung et al., 1987) was chemically biotinylated using Sulfo-N-hydroxysuccinimidobiotin as recommended by the manufacturer (Perbio, Bonn, Germany). Beads used were 5.6 μm diameter streptavidin coated polystyrene particles (Bangs Laboratories, Illinois, USA).
Half of the medium was then exchanged by fresh TCM supplemented with 80 U/ml IL-2 and incubating was continued for 3-4 days at 37° C. […] Finally, multimeric analyses were performed by staining the cells with Live/dead near IR dye (Invitrogen, Karlsruhe, Germany), CD8-FITC antibody clone SK1 (BD, Heidelberg, Germany) and fluorescent pMHC multimers. For analysis, a BD LSRII SORP cytometer equipped with appropriate lasers and filters was used. Peptide specific cells were calculated as percentage of total CD8+ cells. Evaluation of multimeric analysis was done using the FlowJo software (Tree Star, Oregon, USA).

- binding result: binds
B1: DDX5-001 (peptide)
peptide: YLLPAIVHI
notes: control for low immunogenic stimulation
